For orientation: Kd means a measure of binding affinity in units of concentration. A low value points to higher affinity.

The subject of the first series is SpTbr DNA-binding domain (T-box) (Strongylocentrotus purpuratus). The experiment in a line: SPR (steady state). Particulars: SPR running buffer 50 mM Mops (pH not given; protein buffer 20 mM Mops pH 7.5), 150 mM NaCl, 1 mM DTT, 0.01% P20, 20 °C, 30 µl/min; streptavidin-coated CM5 ….
“CTTTAGGTGACAAACGGTTTTCCGTTTGTCACCTAAAG [PmTbr Secondary Site Hairpin]” showed a Kd of 989 nM. “CTTTAGGTGTGAAACGGTTTTCCGTTTCACACCTAAAG [Primary Tbr Site Hairpin]” registered a Kd of 137 nM. Sequence “CTTTAGGTGTCGAACGGTTTTCCGTTCGACACCTAAAG [MmEomes Secondary Hairpin]” came in with a Kd of 882 nM.

In a further series the test system is PmTbr DNA-binding domain (T-box) (Patiria miniata). In words: SPR (steady state). The settings on record: SPR running buffer 50 mM Mops (pH not given; protein buffer 20 mM Mops pH 7.5), 150 mM NaCl, 1 mM DTT, 0.01% P20, 20 °C, 30 µl/min; streptavidin-coated CM5 ….
The sequence “CTTTAGGTGACAAACGGTTTTCCGTTTGTCACCTAAAG [PmTbr Secondary Site Hairpin]” came in with a Kd of 446 nM.

On to “CTTTAGGTGTGAAACGGTTTTCCGTTTCACACCTAAAG [Primary Tbr Site Hairpin]”, for which the dissociation constant Kd is 107 nM. Compared with the last sequence, the Kd is about 4.2-fold lower. With “CTTTAGGTGTCGAACGGTTTTCCGTTCGACACCTAAAG [MmEomes Secondary Hairpin]”, the Kd turned out to be 732 nM.

The next series has as its target T1, PmTbr T-box (Patiria miniata) (UniProt A0A075Q982).
T1 sequence: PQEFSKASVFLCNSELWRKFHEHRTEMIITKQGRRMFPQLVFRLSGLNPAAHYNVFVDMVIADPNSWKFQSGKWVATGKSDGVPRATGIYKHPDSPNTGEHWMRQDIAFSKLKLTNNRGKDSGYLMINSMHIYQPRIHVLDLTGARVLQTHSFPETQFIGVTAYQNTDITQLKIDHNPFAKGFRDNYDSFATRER
Assay: not given
Settings: not given
Turning to “AGGTGTCG (double strand) [8-mer AGGTGTCG]”, the binding signal (PBM E-score (-0.5 to 0.5)) stood at 0.492. On the same count and under the same terms, next, “ACACCTCC (double strand) [8-mer ACACCTCC]”: 0.49. For “GGGTGTGA (double strand) [8-mer GGGTGTGA]”, the binding signal (PBM E-score (-0.5 to 0.5)) came to 0.492. “AGGTGTTA (double strand) [8-mer AGGTGTTA]” had a binding signal (PBM E-score (-0.5 to 0.5)) of 0.496.

“GACACCTC (double strand) [8-mer GACACCTC]” had a binding signal (PBM E-score (-0.5 to 0.5)) of 0.49.

“CACACCTC (double strand) [8-mer CACACCTC]” displayed a binding signal (PBM E-score (-0.5 to 0.5)) of 0.49. The sequence “ACACCTCG (double strand) [8-mer ACACCTCG]” displayed a binding signal (PBM E-score (-0.5 to 0.5)) of 0.49. Regarding “GTGTGAAA (double strand) [8-mer GTGTGAAA]”, the binding signal (PBM E-score (-0.5 to 0.5)) was determined as 0.49. In turn, “AACACCTC (double strand) [8-mer AACACCTC]” displayed a binding signal (PBM E-score (-0.5 to 0.5)) of 0.491. Same read-out and setting: next, “AGGTGTGA (double strand) [8-mer AGGTGTGA]”: 0.499; “GGTGTGAA (double strand) [8-mer GGTGTGAA]”: 0.496; “AGGTGTCA (double strand) [8-mer AGGTGTCA]”: 0.495. Still for that read-out and setting: next, “AGGTGCGA (double strand) [8-mer AGGTGCGA]”: 0.497. “AGGTGCTA (double strand) [8-mer AGGTGCTA]” returned a binding signal (PBM E-score (-0.5 to 0.5)) of 0.491.

The sequence “CTCACACC (double strand) [8-mer CTCACACC]” returned a binding signal (PBM E-score (-0.5 to 0.5)) of 0.491.

A further series addresses T2, SpTbr T-box (Strongylocentrotus purpuratus) (UniProt A0A7M7RD59).
T2 sequence: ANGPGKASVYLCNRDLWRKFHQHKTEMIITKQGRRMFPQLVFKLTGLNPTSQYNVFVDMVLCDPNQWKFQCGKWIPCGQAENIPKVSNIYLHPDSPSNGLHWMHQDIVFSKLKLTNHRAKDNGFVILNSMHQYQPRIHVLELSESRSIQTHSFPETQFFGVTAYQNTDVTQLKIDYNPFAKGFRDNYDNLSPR
Assay: not given
Settings: not given
“ATCACACC (double strand) [8-mer ATCACACC]” returned a binding signal (PBM E-score (-0.5 to 0.5)) of 0.488. On the same count and under the same terms, in the case of “AAGTGTGA (double strand) [8-mer AAGTGTGA]” it was 0.488; in that of “GGGTGTGA (double strand) [8-mer GGGTGTGA]”, 0.493; in that of “GTGTGAAC (double strand) [8-mer GTGTGAAC]”, 0.493. Same read-out and setting: in the case of “AGGTGTTA (double strand) [8-mer AGGTGTTA]” it was 0.494. Still for that read-out and setting: next, “AAGGTGTC (double strand) [8-mer AAGGTGTC]”: 0.487; “AGTGTGAA (double strand) [8-mer AGTGTGAA]”: 0.489.

As to “CACACCTC (double strand) [8-mer CACACCTC]”, the binding signal (PBM E-score (-0.5 to 0.5)) was 0.49. On the same count and under the same terms, in the case of “GTGTGAAA (double strand) [8-mer GTGTGAAA]” it was 0.49; in that of “AGGTGTGA (double strand) [8-mer AGGTGTGA]”, 0.498. The same measure, in the same setting: next, “GGTGTGAA (double strand) [8-mer GGTGTGAA]”: 0.497; “GGTGCGAA (double strand) [8-mer GGTGCGAA]”: 0.487; “AGGTGTCA (double strand) [8-mer AGGTGTCA]”: 0.494.

“AGGTGCGA (double strand) [8-mer AGGTGCGA]”: the binding signal (PBM E-score (-0.5 to 0.5)) worked out at 0.496. “CTCACACC (double strand) [8-mer CTCACACC]” yielded a binding signal (PBM E-score (-0.5 to 0.5)) of 0.494.

These data come from article PMC4166925.
